Data as given in the supplement of paper PMC12458215.
± gives the uncertainty stated by the source.

Test system: HEK293T
Experiment: plasma membrane surface immunostaining intensity (anti-HA, deep receptor scanning) (arbitrary fluorescence units); higher = higher plasma membrane expression

Row | Sequence | plasma membrane surface immunostaining intensity (GPCR class: A (Olfactory)) | plasma membrane surface immunostaining intensity (GPCR class: A) | also measured
1 | MRRNCTLVTEFILLGLTSRRELQILLFTLFLAIYMVTVAGNLGMIVLIQANAWLHMPMYFFLSHLSFVDLCFSSNVTPKMLEIFLSEKKSISYPACLVQCYLFIALVHVEIYILAVMAFDRYMAICNPLLYGSRMSKSVCSFLITVPYVYGALTGLMETMWTYNLAFCGPNEINHFYCADPPLIKLACSDTYNKELSMFIVAGWNLSFSLFIICISYLYIFPAILKIRSTEGRQKAFSTCGSHLTAVTIFYATLFFMYLRPPSKESVEQGKMVAVFYTTVIPMLNLIIYSLRNKNVKEALIKELSMKIYFS [OR5M8] | 115 ± 18 |  | 
2 | MDSTIPVLGTELTPINGREETPCYKQTLSFTGLTCIVSLVALTGNAVVLWLLGCRMRRNAVSIYILNLVAADFLFLSGHIICSPLRLINIRHPISKILSPVMTFPYFIGLSMLSAISTERCLSILWPIWYHCRRPRYLSSVMCVLLWALSLLRSILEWMFCDFLFSGANSVWCETSDFITIAWLVFLCVVLCGSSLVLLVRILCGSRKMPLTRLYVTILLTVLVFLLCGLPFGIQWALFSRIHLDWKVLFCHVHLVSIFLSALNSSANPIIYFFVGSFRQRQNRQNLKLVLQRALQDTPEVDEGGGWLPQETLELSGSRLEQ [MRGPRX3] |  | 135 ± 14 | 
3 | MDNASFSEPWPANASGPDPALSCSNASTLAPLPAPLAVAVPVVYAVICAVGLAGNSAVLYVLLRAPRMKTVTNLFILNLAIADELFTLVLPINIADFLLRQWPFGELMCKLIVAIDQYNTFSSLYFLTVMSADRYLVVLATAESRRVAGRTYSAARAVSLAVWGIVTLVVLPFAVFARLDDEQGRRQCVLVFPQPEAFWWRASRLYTLVLGFAIPVSTICVLYTTLLCRLHAMRLDSHAKALERAKKRVTFLVVAILAVCLLCWTPYHLSTVVALTTDLPQTPLVIAISYFITSLSYANSCLNPFLYAFLDASFRRNLRQLITCRAAA [NPBWR1] |  | 3950 ± 330 | 
4 | MQGLNHTSVSEFILVGFSAFPHLQLMLFLLFLLMYLFTLLGNLLIMATVWSERSLHMPMYLFLCALSITEILYTVAIIPRMLADLLSTQRSIAFLACASQMFFSFSFGFTHSFLLTVMGYDRYVAICHPLRYNVLMSLRGCTCRVGCSWAGGLVMGMVVTSAIFHLAFCGHKEIHHFFCHVPPLLKLACGDDVLVVAKGVGLVCITALLGCFLLILLSYAFIVAAILKIPSAEGRNKAFSTCASHLTVVVVHYGFASVIYLKPKGPQSPEGDTLMGITYTVLTPFLSPIIFSLRNKELKVAMKKTCFTKLFPQNC [OR10H5] | 129 ± 21 |  | 
5 | METNFSIPLNETEEVLPEPAGHTVLWIFSLLVHGVTFVFGVLGNGLVIWVAGFRMTRTVNTICYLNLALADFSFSAILPFRMVSVAMREKWPFGSFLCKLVHVMIDINLFVSVYLITIIALDRCICVLHPAWAQNHRTMSLAKRVMTGLWIFTIVLTLPNFIFWTTISTTNGDTYCIFNFAFWGDTAVERLNVFITMAKVFLILHFIIGFSVPMSIITVCYGIIAAKIHRNHMIKSSRPLRVFAAVVASFFICWFPYELIGILMAVWLKEMLLNGKYKIILVLINPTSSLAFFNSCLNPILYVFMGRNFQERLIRSLPTSLERALTEVPDSAQTSNTDTTSASPPEETELQAM [FPR3] |  | 6430 ± 58 | 
6 | MPKLNSTFVTEFLFEGFSSFRRQHKLVFFVVFLTLYLLTLSGNVIIMTIIRLDHHLHTPMYFFLCMLSISETCYTVAIIPHMLSGLLNPHQPIATQSCATQLFFYLTFGINNCFLLTVMGYDRYVAICNPLRYSVIMGKRACIQLASGSLGIGLGMAIVQVTSVFGLPFCDAFVISHFFCDVRHLLKLACTDTTVNEIINFVVSVCVLVLPMGLVFISYVLIISTILKIASAEGQKKAFATCASHLTVVIIHYGCASIIYLKPKSQSSLGQDRLISVTYTHHSPTEPCCVQPEEQGGQRCSAQSRGAKNSVSLMKRGCEGFSFAFINMY [OR10J3] | 164 ± 60 |  | 
7 | MDFLNSSDQNLTSEELLNRMPSKILVSLTLSGLALMTTTINSLVIAAIIVTRKLHHPANYLICSLAVTDFLVAVLVMPFSIVYIVRESWIMGQVVCDIWLSVDITCCTCSILHLSAIALDRYRAITDAVEYARKRTPKHAGIMITIVWIISVFISMPPLFWRHQGTSRDDECIIKHDHIVSTIYSTFGAFYIPLALILILYYKIYRAAKTLYHKRQASRIAKEEVNGQVLLESGEKSTKSVSTSYVLEKSLSDPSTDFDKIHSTVRSLRSEFKHEKSWRRQKISGTRERKAATTLGLILGAFVICWLPFFVKELVVNVCDKCKISEEMSNFLAWLGYLNSLINPLIYTIFNEDFKKAFQKLVRCRC [HTR1F] |  | 2040 ± 280 | 
8 | MDNVLPVDSDLSPNISTNTSEPNQFVQPAWQIVLWAAAYTVIVVTSVVGNVVVMWIILAHKRMRTVTNYFLVNLAFAEASMAAFNTVVNFTYAVHNEWYYGLFYCKFHNFFPIAAVFASIYSMTAVAFDRYMAIIHPLQPRLSATATKVVICVIWVLALLLAFPQGYYSTTETMPSRVVCMIEWPEHPNKIYEKVYHICVTVLIYFLPLLVIGYAYTVVGITLWASEIPGDSSDRYHEQVSAKRKVVKMMIVVVCTFAICWLPFHIFFLLPYINPDLYLKKFIQQVYLAIMWLAMSSTMYNPIIYCCLNDRFRLGFKHAFRCCPFISAGDYEGLEMKSTRYLQTQGSVYKVSRLETTISTVVGAHEEEPEDGPKATPSSLDLTSNCSSRSDSKTMTESFSFSSNVLS [TACR1] |  | 6280 ± 110 | 
9 | MRTLLPPALLTCWLLAPVNSIHPECRFHLEIQEEETKCAELLRSQTEKHKACSGVWDNITCWRPANVGETVTVPCPKVFSNFYSKAGNISKNCTSDGWSETFPDFVDACGYSDPEDESKITFYILVKAIYTLGYSVSLMSLATGSIILCLFRKLHCTRNYIHLNLFLSFILRAISVLVKDDVLYSSSGTLHCPDQPSSWVGCKLSLVFLQYCIMANFFWLLVEGLYLHTLLVAMLPPRRCFLAYLLIGWGLPTVCIGAWTAARLYLEDTGCWDTNDHSVPWWVIRIPILISIIVNFVLFISIIRILLQKLTSPDVGGNDQSQYKRLAKSTLLLIPLFGVHYMVFAVFPISISSKYQILFELCLGSFQGLVVAVLYCFLNSEVQCELKRKWRSRCPTPSASRDYRVCGSSFSRNGSEGALQFHRGSRAQSFLQTETSVI [VIPR2] |  |  | plasma membrane surface immunostaining intensity (GPCR class: B): 6470 ± 74
10 | MKVGVLWLISFFTFTDGHGGFLGKNDGIKTKKELIVNKKKHLGPVEEYQLLLQVTYRDSKEKRDLRNFLKLLKPPLLWSHGLIRIIRAKATTDCNSLNGVLQCTCEDSYTWFPPSCLDPQNCYLHTAGALPSCECHLNNLSQSVNFCERTKIWGTFKINERFTNDLLNSSSAIYSKYANGIEIQLKKAYERIQGFESVQVTQFRNGSIVAGYEVVGSSSASELLSAIEHVAEKAKTALHKLFPLEDGSFRVFGKAQCNDIVFGFGSKDDEYTLPCSSGYRGNITAKCESSGWQVIRETCVLSLLEELNKNFSMIVGNATEAAVSSFVQNLSVIIRQNPSTTVGNLASVVSILSNISSLSLASHFRVSNSTMEDVISIADNILNSASVTNWTVLLREEKYASSRLLETLENISTLVPPTALPLNFSRKFIDWKGIPVNKSQLKRGYSYQIKMCPQNTSIPIRGRVLIGSDQFQRSLPETIISMASLTLGNILPVSKNGNAQVNGPVISTVIQNYSINEVFLFFSKIESNLSQPHCVFWDFSHLQWNDAGCHLVNETQDIVTCQCTHLTSFSILMSPFVPSTIFPVVKWITYVGLGISIGSLILCLIIEALFWKQIKKSQTSHTRRICMVNIALSLLIADVWFIVGATVDTTVNPSGVCTAAVFFTHFFYLSLFFWMLMLGILLAYRIILVFHHMAQHLMMAVGFCLGYGCPLIISVITIAVTQPSNTYKRKDVCWLNWSNGSKPLLAFVVPALAIVAVNFVVVLLVLTKLWRPTVGERLSRDDKATIIRVGKSLLILTPLLGLTWGFGIGTIVDSQNLAWHVIFALLNAFQGFFILCFGILLDSKLRQLLFNKLSALSSWKQTEKQNSSDLSAKPKFSKPFNPLQNKGHYAFSHTGDSSDNIMLTQFVSNE [ADGRF1] |  |  | plasma membrane surface immunostaining intensity (GPCR class: B): 466 ± 27
11 | MESENRTVIREFILLGLTQSQDIQLLVFVLVLIFYFIILPGNFLIIFTIKSDPGLTAPLYFFLGNLAFLDASYSFIVAPRMLVDFLSAKKIISYRGCITQLFFLHFLGGGEGLLLVVMAFDRYIAICRPLHYPTVMNPRTCYAMMLALWLGGFVHSIIQVVLILRLPFCGPNQLDNFFCDVPQVIKLACTDTFVVELLMVFNSGLMTLLCFLGLLASYAVILCRIRGSSSEAKNKAMSTCITHIIVIFFMFGPGIFIYTRPFRAFPADKVVSLFHTVIFPLLNPVIYTLRNQEVKASMKKVFNKHIA [OR4N2] | 134 ± 28 |  | 
12 | MEWGYLLEVTSLLAALALLQRSSGAAAASAKELACQEITVPLCKGIGYNYTYMPNQFNHDTQDEAGLEVHQFWPLVEIQCSPDLKFFLCSMYTPICLEDYKKPLPPCRSVCERAKAGCAPLMRQYGFAWPDRMRCDRLPEQGNPDTLCMDYNRTDLTTAAPSPPRRLPPPPPGEQPPSGSGHGRPPGARPPHRGGGRGGGGGDAAAPPARGGGGGGKARPPGGGAAPCEPGCQCRAPMVSVSSERHPLYNRVKTGQIANCALPCHNPFFSQDERAFTVFWIGLWSVLCFVSTFATVSTFLIDMERFKYPERPIIFLSACYLFVSVGYLVRLVAGHEKVACSGGAPGAGGAGGAGGAAAGAGAAGAGAGGPGGRGEYEELGAVEQHVRYETTGPALCTVVFLLVYFFGMASSIWWVILSLTWFLAAGMKWGNEAIAGYSQYFHLAAWLVPSVKSIAVLALSSVDGDPVAGICYVGNQSLDNLRGFVLAPLVIYLFIGTMFLLAGFVSLFRIRSVIKQQDGPTKTHKLEKLMIRLGLFTVLYTVPAAVVVACLFYEQHNRPRWEATHNCPCLRDLQPDQARRPDYAVFMLKYFMCLVVGITSGVWVWSGKTLESWRSLCTRCCWASKGAAVGGGAGATAAGGGGGPGGGGGGGPGGGGGPGGGGGSLYSDVSTGLTWRSGTASSVSYPKQMPLSQV [FZD8] |  |  | plasma membrane surface immunostaining intensity (GPCR class: F): 225 ± 23
13 | MSNASLLTAFILMGLPHAPALDAPLFGVFLVVYVLTVLGNLLILLVIRVDSHLHTTMYYFLTNLSFIDMWFSTVTVPKLLMTLVFPSGRAISFHSCMAQLYFFHFLGGTECFLYRVMSCDRYLAISYPLRYTSMMTGRSCTLLATSTWLSGSLHSAVQAILTFHLPYCGPNWIQHYLCDAPPILKLACADTSAIETVIFVTVGIVASGCFVLIVLSYVSIVCSILRIRTSEGKHRAFQTCASHCIVVLCFFGPGLFIYLRPGSRKAVDGVVAVFYTVLTPLLNPVVYTLRNKEVKKALLKLKDKVAHSQSK [OR10G8] | 114 ± 4.5 |  | 
14 | MVNNFSQAEAVELCYKNVNESCIKTPYSPGPRSILYAVLGFGAVLAAFGNLLVMIAILHFKQLHTPTNFLIASLACADFLVGVTVMPFSTVRSVESCWYFGDSYCKFHTCFDTSFCFASLFHLCCISVDRYIAVTDPLTYPTKFTVSVSGICIVLSWFFSVTYSFSIFYTGANEEGIEELVVALTCVGGCQAPLNQNWVLLCFLLFFIPNVAMVFIYSKIFLVAKHQARKIESTASQAQSSSESYKERVAKRERKAAKTLGIAMAAFLVSWLPYLVDAVIDAYMNFITPPYVYEILVWCVYYNSAMNPLIYAFFYQWFGKAIKLIVSGKVLRTDSSTTNLFSEEVETD [TAAR9] |  | 136 ± 34 | 
15 | MLNFTDVTEFILLGLTSRREWQVLFFIIFLVVYIITMVGNIGMMVLIKVSPQLNNPMYFFLSHLSFVDVWFSSNVTPKMLENLLSDKKTITYAGCLVQCFFFIALVHVEIFILAAMAFDRYMAIGNPLLYGSKMSRVVCIRLITFPYIYGFLTSLAATLWTYGLYFCGKIEINHFYCADPPLIKMACAGTFVKEYTMIILAGINFTYSLTVIIISYLFILIAILRMRSAEGRQKAFSTCGSHLTAVIIFYGTLIFMYLRRPTEESVEQGKMVAVFYTTVIPMLNPMIYSLRNKDVKKAMMKVISRSC [OR5M3] | 120 ± 24 |  | 
